B1: ADP-ribosylation factor 6 (Homo sapiens), P62330 (parent)
chain: MGKVLSKIFGNKEMRILMLGLDAAGKTTILYKLKLGQSVTTIPTVGFNVETVTYKNVKFNVWDVGGQDKIRPLWRHYYTGTQGLIFVVDCADRDRIDEARQELHRIINDREMRDAIILIFANKQDLPDAMKPHEIQEKLGLTRIRDRNWYVQPSCATSGDGLYEGLTWLTSNYKS
partner: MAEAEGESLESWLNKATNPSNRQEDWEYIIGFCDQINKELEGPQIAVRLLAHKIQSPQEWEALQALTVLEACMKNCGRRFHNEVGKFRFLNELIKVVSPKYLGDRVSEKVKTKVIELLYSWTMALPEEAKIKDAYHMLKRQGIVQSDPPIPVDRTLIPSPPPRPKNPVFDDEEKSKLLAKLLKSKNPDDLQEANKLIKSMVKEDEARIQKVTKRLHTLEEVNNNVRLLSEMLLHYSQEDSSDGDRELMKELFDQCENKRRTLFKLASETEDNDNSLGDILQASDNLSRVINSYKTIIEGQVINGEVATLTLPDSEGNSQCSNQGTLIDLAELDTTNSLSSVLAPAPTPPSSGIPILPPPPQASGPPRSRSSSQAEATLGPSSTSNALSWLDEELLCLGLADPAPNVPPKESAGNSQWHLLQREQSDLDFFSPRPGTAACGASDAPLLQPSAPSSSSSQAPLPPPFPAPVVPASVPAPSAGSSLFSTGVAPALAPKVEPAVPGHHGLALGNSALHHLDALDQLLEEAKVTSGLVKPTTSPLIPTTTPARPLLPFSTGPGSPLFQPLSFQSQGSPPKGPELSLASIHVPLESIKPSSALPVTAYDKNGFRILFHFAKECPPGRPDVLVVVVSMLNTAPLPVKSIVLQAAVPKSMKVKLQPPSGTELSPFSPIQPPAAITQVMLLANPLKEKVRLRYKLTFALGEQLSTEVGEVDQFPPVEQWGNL
B2: ADP-ribosylation factor 6 (Homo sapiens), P62330 (parent)
chain: B1 chain
partner: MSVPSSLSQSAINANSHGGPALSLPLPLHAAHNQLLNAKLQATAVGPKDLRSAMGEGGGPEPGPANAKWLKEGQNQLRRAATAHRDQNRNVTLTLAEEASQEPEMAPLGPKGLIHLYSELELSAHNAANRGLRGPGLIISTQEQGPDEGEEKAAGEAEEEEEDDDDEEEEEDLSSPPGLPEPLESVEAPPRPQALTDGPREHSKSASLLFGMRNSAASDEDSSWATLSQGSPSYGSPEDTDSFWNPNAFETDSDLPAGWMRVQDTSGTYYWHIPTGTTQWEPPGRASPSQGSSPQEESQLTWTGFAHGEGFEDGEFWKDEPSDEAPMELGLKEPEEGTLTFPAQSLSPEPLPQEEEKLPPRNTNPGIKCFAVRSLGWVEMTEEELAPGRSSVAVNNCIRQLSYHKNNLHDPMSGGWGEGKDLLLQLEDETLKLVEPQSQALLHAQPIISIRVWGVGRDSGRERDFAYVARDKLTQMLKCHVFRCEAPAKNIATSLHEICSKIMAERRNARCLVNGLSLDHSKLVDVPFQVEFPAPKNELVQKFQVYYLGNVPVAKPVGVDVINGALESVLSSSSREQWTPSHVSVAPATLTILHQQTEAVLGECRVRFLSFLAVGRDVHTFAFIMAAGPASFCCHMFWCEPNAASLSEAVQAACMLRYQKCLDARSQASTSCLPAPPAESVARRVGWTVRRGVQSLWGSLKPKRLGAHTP

Variants of B1 are the subject of one assay. The settings on record: with gga3_human GGA3, Q9NZ52.
Regarding Q67L, the “effect of a mutation on the interaction” value is given as “increasing interaction strength”. Same read-out and setting: to T27N belongs “decreasing interaction strength”.

In the next assay the parent is B2. The conditions noted are these: with apbb1_human APBB1, O00213.
For Q67L, the “effect of a mutation on the interaction” value is recorded as “disrupting interaction strength”.

In the case of T27N, the “effect of a mutation on the interaction” value is reported as “increasing interaction strength”.

Values taken from IntAct's records for PubMed 24056087.
